Data set [1] concerns CC(C)C[C@H](NC(=O)[C@@H](NC(=O)c1ccccc1N)C(C)C)C(=O)N[C@@H](C)C(=O)NCC(=O)Nc1ccc([N+](=O)[O-])cc1. The data set can be described thus: Fluorogenic Abz-VLAG-pNA cleavage by peptide-activated AlgW and LA loop mutants (200 nM), 25 mM Tris pH 7.5, 150 mM NaCl, 37°C, Michaelis-Menten fit. The data set is classed as biochemical. As to the method: Based on the identified MucA and MucB cleavage sites for AlgW ([6], [13]), self-quenching fluorogenic tetrapeptides derived from 134-VLAG-137 of MucA (Abz-VLAG-pNA), 211-TVAW-214 of MucB (Abz-TVAW-pNA), and alanine tetrapeptide (Abz-AAAA-pNA) were synthesized and subjected to real-time measurement of AlgW proteolytic activity in the presence of excessive peptides (10 mM) (Fig. 2A). Compared with the negative-control group (using Abz-AAAA-pNA substrate), both Abz-VLAG-pNA and Abz-TVAW-pNA could be efficiently cleaved by AlgW. […] Considering that MucA is the major target of AlgW, substrate Abz-VLAG-pNA and decapeptide activator SVRDELRWVF were selected to establish a real-time AlgW assay to investigate the kinetic mechanism.
(§1) For the enzyme mechanism of AlgW (30–389) and mutants, two internally quenched fluorescent peptide substrates incorporating the peptidase cleavage site of MucA/MucB, Abz-VLAG-pNA and Abz-TVAW-pNA, were designed and synthesized (GL Biochem Shanghai Ltd., China). In the intact peptide, the fluorescence of the anthraniloyl group is quenched by the P-nitroaniline (Abz is a fluorogenic group, and pNA is a quencher of fluorescence). This quenched fluorescence is liberated upon cleavage of peptide by 200 nM AlgW and mutants (200/3 nM for trimer), resulting in increased fluorescence that can then be monitored fluorometrically. Prior to the assay, all enzyme preparations were incubated with 10 mM agonist peptides (WVF or SVRDELRWVF) for 30 min at room temperature. All assays were placed in a buffer containing 25 mM Tris (pH 7.5) and 150 mM NaCl at 37°C for 1 h, and the final assay volume was 100 μl. The fluorescent degradation products were monitored at 60-s intervals at fluorescence wavelength—λex = 310 nm, λem = 420 nm ([41]). All data points were representative of three independent determinations and were simulated with solid lines with the formula Y = Vmax · X^h/(Km ^h + X^h) or Y = Vmax · X^h/(Khalf^h + X^h) or the Michaelis-Menten formula (Y = Vmax · X/[Km + X]). Substrate versus velocity was used to determine Km and Vmax, and agonists versus velocity was used to determine the half-maximal activation concentration and maximum activation rate of agonists. The fitting and calculation of data were carried out using Prism 7 (GraphPad, CA, USA).

A further data set deals with AlgW. Kind of data set: Quenched fluorescent substrate cleavage by peptide/lipid-activated AlgW (substrate versus velocity). The data set is classed as biochemical, Pseudomonas aeruginosa. Conditions: three independent determinations; for Km / Vmax: substrate gradient 3.125-300 μM, Hill fit; for Km / Hill constants: Tris pH 7.5, 37°C; for Hill constants: substrate gradient; for Vmax: 25 mM Tris pH 7.5, 150 mM NaCl, 37°C, 1 h, fluorescence ex 310/em 420 nm. As to the method:
FIG 2 Determination of enzyme apparent kinetic parameters of dual-signal-activated AlgW. (A) Activity assay of tripeptide or decapeptide-activated AlgW using the quenched fluorescent substrates Abz-VLAG-pNA, Abz-TVAW-pNA, and Abz-AAAA-pNA. All assays were placed in a buffer containing 25 mM Tris (pH 7.5) and 150 mM NaCl at 37°C for 1 h by adding 100 μM substrate, 200 nM AlgW, and 10 mM agonist peptides (tripeptide WVF or decapeptide SVRDELRWVF). (B) The apparent Michaelis-Menten parameters of AlgW cleavage quenched fluorescent substrates Abz-VLAG-pNA (100 μM) under the condition of peptide or lipid activation. (C) The activity assay of peptide or DDM activated AlgW using the saturated quenched fluorescent substrates Abz-VLAG-pNA. Under the gradient of peptide or DDM concentration,100 μM substrate and 200 nM AlgW were coincubated with or without 400 μM DDM or 10 mM agonist peptides in a buffer containing 25 mM Tris (pH 7.5) and 150 mM NaCl at 37°C for 1 h. The final assay volume of all experiments was 100 μl, and the appearance of fluorescent products was monitored at 60-s intervals at fluorescence wavelengths of λex = 310 nm and λem = 420 nm. All data points were representative of three independent determinations and were simulated with solid lines through the formula of Y = Vmax · X^h/(Km^h + X^h) or Y = Vmax · X^h/(Khalf^h + X^h). The Kcat for the AlgW trimer was calculated by Kcat = Vmax/(Etotal), (Etotal) = 200/3 nM trimers. Error bars represent the standard deviation.
as §1
All experiments were performed in independent biological triplicate, and the results of replicates were consistent. The fitting and calculation of data were carried out with Prism 7 (GraphPad, CA, USA). All the enzyme kinetic data points were representative of three independent determinations and were simulated with solid lines through the formula Y = Vmax · X^h/(Km^h + X^h) or Y = Vmax · X^h/(Khalf^h + X^h) or the Michaelis-Menten formula (Y = Vmax · X/[Km + X]). Substrate versus velocity was used to determine Km and Vmax, and agonists versus velocity was used to determine the half-maximal activation concentration and maximum activation rate of agonists; error bars represent the standard deviation.

The subject of the next data set is DegS. Kind of data set: Rse- protease degradation assay. The data set is classed as biochemical, Escherichia coli. As to conditions: RseB 130 μM, DegS 25 μM, decapeptide 100 μM; phosphate buffer pH 7.5, 37°C. As to the method:
FIG 1 Degradation of MucA and MucB by AlgW in response to the peptides and lipid signals. (A and B) MucB/RseB (130 μM) was cleaved by AlgW/DegS (25 μM) in the presence of different agonist combinations, including lipid-A (100 μM), lipid-like detergent DDM (400 μM), decapeptide SVRDELRWVF (100 μM), and decapeptide combined with lipid-A or DDM. (C and D) MucB/RseB-protected MucA^peri/RseA^peri degradation by AlgW/DegS in the presence of different lengths of the activating peptides in a time-dependent manner. MucA^peri (125 μM), AlgW (25 μM), MucB (130 μM), activation peptides (tripeptide WVF or decapeptide SVRDELRWVF, 100 μM), and lipid-A (100 μM) were incubated at 37°C in a time-dependent manner in buffer (25 mM Tris-HCl pH 7.5, 150 mM NaCl). Similarly, RseA^peri (125 μM) was cleaved by DegS (25 μM) in the presences of RseB (130 μM), activation peptides (tripeptide YYF or decapeptide DNRDGNVYYF, 100 μM), and lipid-A (100 μM) at 37°C in a time-dependent manner in a phosphate buffer containing 50 mM NaHPO4 (pH 7.5), 200 mM NaCl, 10% glycerol, and 4 mM EDTA. (E and F) MucA^peri/RseA^peri was cleaved by AlgW/DegS in the presence of different agonist combinations in a time-dependent manner. MucA^peri (125 μM), AlgW (25 μM), activation decapeptide SVRDELRWVF (100 μM), and lipid-A (100 μM) were incubated at 37°C in a time-dependent manner in buffer. […]

For another data set, the system named is AlgW and mutants. Kind of data set: Apparent activation parameters of AlgW and mutants (peptide agonist gradient). The data set is classed as biochemical, Pseudomonas aeruginosa. Conditions: peptide activator (decapeptide) gradient, substrate Abz-VLAG-pNA, Michaelis-Menten fit, means of three independent determinations.
Source text: as §1

Data set [2] concerns the molecule itself. The data set can be described thus: crystal structure; protein mixed with peptide activator (tripeptide WVF or decapeptide …) prior to crystallization; hanging-drop vapor diffusion at 18°C; molecular replacement.
Setting [3] is: decapeptide SVRDELRWVF (10 mM) activated AlgW 200 nM.
The mark [4] stands for this setting: decapeptide SVRDELRWVF (10 mM, 30 min RT pre-incubation) activated AlgW 200 nM.
Setting [5] is: tripeptide WVF (10 mM) activated AlgW 200 nM.
[6] abbreviates: tripeptide WVF (10 mM, 30 min RT pre-incubation) activated AlgW 200 nM.

For orientation: Km means the concentration of substrate that gives half-maximal velocity. As a reminder, the Vmax is the top rate of the reaction or transport when substrate is in excess. By kcat/Km is commonly meant the turnover number divided by the Michaelis constant. What is called stoichiometry N is the number of molecules, sites or subunits per partner or assembly.

Numbering of substitutions follows the chain as printed. “And” between values parts separate entries of the source, which are not always exact repeats. Identical values can stand only once. Non-standard residues stand in square brackets, D forms with d. Residues, ends and D or L forms follow the SMILES beside them. *: point of attachment. pNA = O=[N+]([O-])c1ccc(N*)cc1; 2Abz = Nc1ccccc1C(=O)O

Take “AlgW-T72A (Pseudomonas aeruginosa PAO1; T72A)”: in data set [1], the Km was 86.69 ± 15.8 µM, the Vmax was found to be 766 µM/min and the kcat/Km turned out to be 2.21e+06 ± 156000 M⁻¹ s⁻¹.
Consider `CC(C)[C@H](NC(=O)[C@@H](NC(=O)c1ccccc1N)[C@@H](C)O)C(=O)N[C@@H](C)C(=O)N[C@@H](Cc1c[nH]c2ccccc12)C(=O)Nc1ccc([N+](=O)[O-])cc1` [Abz-TVAW-pNA] (H-[2Abz]TVAW-pNA), for which the Michaelis constant (Km) amounted to 26.9 ± 1.48 µM with AlgW (setting [3]) and 25.1 ± 1.93 µM with AlgW (setting [5]). Besides, the Hill constants was 1.26 and 1.26 ± 0.07 with AlgW (setting [3]); 1.25 and 1.25 ± 0.09 with AlgW (setting [5]). The Vmax in the data set with AlgW (setting [4]) is 319.5 ± 6.42 µM/min; in the data set on AlgW (setting [6]), 264.1 ± 7.31 µM/min.
For DNRDGNVYYF, the “RseB cleavage by DegS” value in the data set on DegS is “no proteolysis was noticed”.
Turning to “AlgW-ESS (103–105)A (Pseudomonas aeruginosa PAO1; E103A/S104A/S105A)”, in data set [1], the Km stood at 123.1 ± 19.44 µM, the Vmax was 873 µM/min and the kcat/Km amounted to 1.77e+06 ± 122000 M⁻¹ s⁻¹.
As to `CC(C)C[C@H](NC(=O)[C@@H](NC(=O)c1ccccc1N)C(C)C)C(=O)N[C@@H](C)C(=O)NCC(=O)Nc1ccc([N+](=O)[O-])cc1` [Abz-VLAG-pNA] (H-[2Abz]VLAG-pNA), the figures for the Km with AlgW (setting [3]) and with AlgW (setting [5]) were 50.1 ± 9.65 µM and 14.8 ± 2.16 µM, respectively. Further, the Hill constants in the data set on AlgW (setting [3]) was ~1 and 0.95 ± 0.09; in the data set on AlgW (setting [5]), 1.51 ± 0.29. For the same molecule, the Vmax in the data set with AlgW (setting [4]) came to 187 ± 12.83 µM/min; with AlgW (setting [6]) it was 81.23 ± 4.02 µM/min.
Turning to “AlgW-T71A (Pseudomonas aeruginosa PAO1; T71A)”, in data set [1], the Km turned out to be 48.29 ± 6.19 µM, the Vmax is 154 µM/min and the kcat/Km amounted to 799000 ± 33200 M⁻¹ s⁻¹.
As to “AlgW-TTK (71–73)A (Pseudomonas aeruginosa PAO1; K73A/T71A/T72A)”, in data set [1], the Km was determined as 125.1 ± 19.87 µM, the Vmax was determined as 1430 µM/min and the kcat/Km stood at 2.86e+06 ± 199000 M⁻¹ s⁻¹.
Consider “AlgW-K73A (Pseudomonas aeruginosa PAO1; K73A)”, for which, in data set [1], the Km amounted to 247.9 ± 93.04 µM, the Vmax stood at 188 µM/min and the kcat/Km was 189000 ± 39700 M⁻¹ s⁻¹.

B1: AlgW-K287A (protein)
chain: VGLPRQEVHVEQAPLLSRLQEGPVSYANAVSRAAPAVANLYTTKMVSKPSHPLFDDPMFRRFFGDNLPQQKRMESSLGSAVIMSAEGYLLTNNHVTAGADQIIVALRDGRETIAQLVGSDPETDLAVLKIDLKNLPAMTLGRSDGIRTGDVCLAIGNPFGVGQTVTMGIISATGRNQLGLNTYEDFIQTDAAINPGNSGGALVDAAGNLIGINTAIFSKSGGSQGIGFAIPTKLALEVMQSIIEHGQVIRGWLGVEVAALTPELAESLGLGETAGIVVAGVYRDGPAARGGLLPGDVILTIDKQEASDGRRSMNQVARTRPGQKISIVVLRNGQKVNLTAEVGLRPPPAPAPQQKQDGGE
modifications: left off: His6, C-terminal, state not stated
Take B1: the EC50 with AlgW and mutants (read-out: Half-maximal activation concn) came out at 6.53 ± 1.38 µM. For the same molecule, the Maximal cleavage activity with AlgW and mutants (Tris pH 7.5, 150 mM NaCl, 37°C) was 49.42 ± 3.59 µM/min.

B2: AlgW_(52-389), periplasmic soluble domain of AlgW for crystallization (enzyme)
chain: PVSYANAVSRAAPAVANLYTTKMVSKPSHPLFDDPMFRRFFGDNLPQQKRMESSLGSAVIMSAEGYLLTNNHVTAGADQIIVALRDGRETIAQLVGSDPETDLAVLKIDLKNLPAMTLGRSDGIRTGDVCLAIGNPFGVGQTVTMGIISATGRNQLGLNTYEDFIQTDAAINPGNSGGALVDAAGNLIGINTAIFSKSGGSQGIGFAIPTKLALEVMQSIIEHGQVIRGWLGVEVKALTPELAESLGLGETAGIVVAGVYRDGPAARGGLLPGDVILTIDKQEASDGRRSMNQVARTRPGQKISIVVLRNGQKVNLTAEVGLRPPPAPAPQQKQDGGE
notes: Vector pET22b-(LEVLFQ/GP)-6xHis has a PreScission site that allows removal of the His tag; source: E. coli BL21(DE3), purified (Ni-NTA, Superdex-75 SEC)
For B2, the “stoichiometry N” value in data set [2] was 3.

B3: AlgWS227A (inactive mutant of the periplasmic soluble domain of AlgW, for crystallization) (enzyme)
chain: B2 chain with S176A
notes: AlgW of Pseudomonas aeruginosa, residues 52-389 (construct for crystallization), catalytic serine S227 changed to alanine; source: E. coli BL21(DE3), purified (Ni-NTA, Superdex-75 SEC)
Take B3: the “stoichiometry N” value in data set [2] was determined as 3.

For the origin of these results see article PMC8545111, “Molecular Basis of the Versatile Regulatory Mechanism of HtrA-Type Protease AlgW from Pseudomonas aeruginosa” (mBio, 2021).
